Test results as given in the supplement of paper PMC9170038.

What follows are sequences tested on K4 kissing-loop RNA reporter (assay: apparent KD of K4 kissing-loop reporter; higher = weaker reporter binding). Settings: Eterna round: R107; input ligand: FMN 200 uM.
Description: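 RNA-MaP round R107: designed RNA switches with theophylline, tryptophan, arginine or FMN aptamers are transcribed on-chip within common flanks. They are titrated with a labelled K4 kissing-loop RNA reporter in RNA-MaP buffer (100 mM Tris pH 7.5, 80 mM KCl, 4 mM MgCl2), without ligand or with the indicated ligand. Median apparent KD per design.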
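Further: bound reporter read as fluorescence of individual clusters on recovered sequencing chips by microscopy, with normalized cluster intensities fitted with a binding model.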

First: AAGCAUUCUUCGGAAUGCAGACCCGCUGAGGAGGAUAUGACGAAAGUCAGAAGGUUUCAGUGAUGUUGAGGCCUCCUCAAUGGUC [whbob_Ex_FMNA__2th182]
Second: CCAAUCUGUUACGAUACCAGUCAAAGAUAUUUUAUCAAUGCCCUCACCGAGUGAUGUUCGGACCCUUGGCAGCGUCUGGGAUAGG [ddfcmullin]
The “apparent KD of K4 kissing-loop reporter” value of the first is 1.8-fold higher: 305 nM for the first, 165 nM for the second.

First: CCUUCUCUUGAUAGUGAUGUUAUCGAGGACAAGGAUAUCAUCUCAAUGAGAAGGUGUCCUUGAUAACAUGGAGGUCUGAAACAGA [Omei KL FMN A Exc C v9]
Second: UAUUAAUUGUCAGGAUAUCGUAAACGAGUGAUGUUCGUAUAUCGACGAUAGUCGAUUCUAUCUAAACGAGAAGGGACAUUAUUUA [JR_SSFMNB_Sub008]
The “apparent KD of K4 kissing-loop reporter” value of the first is 1.7-fold lower: 205 nM for the first, 346 nM for the second.

Compared with “AUUUUUUACAGAAGGAGCGUGUUUUAAUAAUCAUGGUGCUUAGCGAGUGAUGUUCGCUUUACACAGGUAGGUCGCUGUUUAUUUA [JR_Nu_ExcArginiB_Sub030]”, “GAUUUAGAGGCGGCCGCCACUAGUGAUGUUAGUGAUGUUUGAUACUGAAUAUAUCUGCGUUUAGAUAGGACCGGGCCAGAUGGUG [ddcmullin]” is 2.2-fold higher in “apparent KD of K4 kissing-loop reporter” value: 120 nM for the first, 261 nM for the second.

Compared with “GAUCUGAACGAAAGUUCGGAUCAGUCCGAUACCAGUAUGGAUUCAUACCCUUGGCAGCGGUUAUCUGCUAUGGAGUGAUGUUCCA [Theophylline A K4 11]”, “UUGAGACGUCAAGGAUAUUCCGCGGAAGGGCGAGCGACCCAAGUGUGAGUGAUGUUCAGCAAGCCGGAAGAAGGUGAAUUUCACC [theeternabot_sameState_KL_FMN_B_26]” is 1.6-fold higher in “apparent KD of K4 kissing-loop reporter” value: 502 nM for the first, 799 nM for the second.

Going from “AACGUUUUGUGAAGGAGCGCGAUAAGCAGUGAUGUUGCUUACUUACAAUUUAUAUUUUACACGCAGGUAGGUCGCACAAUACGUA [JR_SSArginiB_Sub017]” to “GUUGUAUACUGAAGGAGCGAGUAGUGGAAACAUAAACUCAUUGCGAGUGAUGUUCGCAGUACUCAGGUAGGUCGCAGUAAUCGUA [Exclusion Arginine B Gf 10]”, the “apparent KD of K4 kissing-loop reporter” value rises from 207 nM to 534 nM (2.6-fold).

First: AAAUUUUCAAGUGAUACCAGACAUUUUUAUUUCUUUAUUUAUGCUAAGUGAUGUUUAGCAGUCCCUUGGCAGCACUAUUUAAUUA [JR_Nu_SSTheophyB_Sub030]
Second: CCAUUCAUUUACGAUACCAGUCUAAUAUAUUUAAUCAAAACCCUCGCCGAGUGAUGUUCGGACCCUUGGCAGCGUCUGCGAGAGG [oookmullin]
The “apparent KD of K4 kissing-loop reporter” value of the first is 4.7-fold lower: 127 nM for the first, 596 nM for the second.

Going from “CUGACUAAAUAGUCAGUGAUGUUGACUGGACGAGGACCGGUACGGCCGCCACUCGAGAGUGGUGUAAUAUAUGUCAUAUAGUCAA [Tryp A SS t3]” to “AAGGUCACUACUACAGUGAUGUUGUGGGAGCAGGAUAUGCAGAAAUGCAGAAGGGCUCGCUCCAAGUGACCGAAUGAAACAUUCA [Omei KL FMN A SS A v1]”, the “apparent KD of K4 kissing-loop reporter” value rises from 517 nM to 1170 nM (2.3-fold).

“AAAAUAAACCAGUGAUGUUGGUGUCUAGAUACCAGCGACAAAAGUCGCCCUUGGCAGCUACGGACGUACAAAAUAAGUACGUCCU [MatMod 9 - Jieux - Same State - Theophylline A]” and “AAGUCAUAGGCAGGAUAUGCUUAGUAUUAAGGCCAUAUAUACGUAUAGAGUGAUGUUUUGUACCAGGCAGAAGGGCUACAUCAGU [FMN B Excl V6 (+A)]” are within 1.5-fold of each other in “apparent KD of K4 kissing-loop reporter” value: 468 nM for the first, 448 nM for the second.

Compared with “UGUCAUUGGUCUGAUACCAGGUUGAUCGGUAAACGAUCUCCUGGAGUGAUGUUCCAAAAUAUCCCUUGGCAGCAGACCGAUGACU [TheoBS 6 #SwitchBubble #StaticStem]”, “UGACUGGACUGAAGGAGCGCUGAAGGAGCGUAAGCAGUGAUGUUGCUUACAGGUAGGUCGCAGCAGGUAGGUCGCAGUCUAGUCU” is 6.1-fold lower in “apparent KD of K4 kissing-loop reporter” value: 571 nM for the first, 93.5 nM for the second.

“AGAACUGUCUGAGAUACCAGCCAGGAAGUGAUGUUUCCAGCUCCACGAAAGUGGAGCCAUGGCCCUUGGCAGCUCAGACAGUUCA [Omei KL Theo B SS A v5]” and “GCCAGUGCACGAAGGAGCGCCGUGACAGGUUACUGCCUUGGGCAGUGAUGUUGCUCAAUCUGGCAGGUAGGUCGCGUGCACUGGC” are within 1.5-fold of each other in “apparent KD of K4 kissing-loop reporter” value: 150 nM for the first, 169 nM for the second.

Compared with “CCGAAGAACCAGUGAUGUUGGUUGACUAGACAGGAUAUGAGCAACAUCAGAAGGGUCUGGCUUCGGGAGUGGGUUGCGCUGACCU [Onbizaes]”, “GGAUAGGACGGAGGAUAUGGGCUAGGCAAGAAUAACUUGUCUAGCAAAUCCAUGAGGAGUGAUGUUCCAGAAGGUUGUCCUAUCG [FmnBX 1 G10+U75]” is 1.7-fold lower in “apparent KD of K4 kissing-loop reporter” value: 283 nM for the first, 167 nM for the second.

First: GCCGUACGCAUGGAUACCAGCAAUAUGCUACGUUGUAGUAGUAUAACCAGUGAUGUUGGAUGCCCUUGGCAGCCAUGCGUACGGC
Second: GCCGUACGCAUGGAUACCAGCCGACAUGAUAUUUAGCUGGUGUCGUAGUGAUGUUACGAAGGCCCUUGGCAGCCAUGCGUACGGC
The “apparent KD of K4 kissing-loop reporter” value of the first is 8.8-fold higher: 736 nM for the first, 83.7 nM for the second.

Compared with “UAAGAGGACCACUGCGAGAGUCCUCGAAUACGAGGACCGGUACGGCCGCCACUCGAUAAUUUGUAGUGAUGUUGCAAGUAAGAAU [BrourdMod 7 - Jieux - Same State Tryptophan A]”, “GGUGCUGUCUGUGCCGCCCUCCUCGUCCCUCGAGGACCGGUACGGCCGCCACUCGAGUGAUGUUCGGGUAGCCAUCCCUGCCAGC [BDazzled - #20 Exc. Tryptophan A]” is 10-fold higher in “apparent KD of K4 kissing-loop reporter” value: 50.3 nM for the first, 527 nM for the second.

Going from “GCAGGCGUAAAAGGAUAUCAGGCUCUCUAGACACGAGUGAUGUUUGUGUAGGUAACGUAAUAGGCAUGAGAAGGUUUCACUUAAA [theeternabot_sameState_KL_FMN_B_49]” to “UUUGGUUUCUCGGCCGCCACUCGUUGGUUAUGGGCUUCAGGGAUAUAGUGAUGUUAUGUAUAGAAGAGGACCGGGAGAAGGUUUU [ExTryptoB.Du]”, the “apparent KD of K4 kissing-loop reporter” value falls from 608 nM to 215 nM (2.8-fold).

Compared with “GGGUGAGCGCGAAGGAGCGCCCUGACAGGUUGCUGCCGUGGGCAGUGAUGUUGCUCAGUCCGGCAGGUAGGUCGCGUGCUCACCC”, “UGAUCUCGGCAGUGAUGUUGCAUAUGAGAAGGAGCGCACGAAAGUGCAGGUAGGUCGCUCAGCCAAAGAAAAUAAAACGAGAUCU [#SwitchBubble #K4Early]” is 2-fold lower in “apparent KD of K4 kissing-loop reporter” value: 187 nM for the first, 93.4 nM for the second.

Going from “AUGGGUCCACGAAGGAGCGCCGUGCAGUGAUGUUGCAGUUAGAUCCAGUGAUGUUUGGGCCGGCAGGUAGGUCGCGUGGAUUUAU [Exclusion Arginine B GF 22]” to “UGUCAUUGGUCGGCCGCCACUAGGACCGGGUAUAACCUAGUGAUGUUAGUAAGUACGGCCGCCACUAGGACCGGGACCGAUGACU [KL-SSTryp-B19 #DoubleAptamer]”, the “apparent KD of K4 kissing-loop reporter” value rises from 249 nM to 484 nM (1.9-fold).

Same assay, conditions: Eterna round: R107; input ligand: arginine 13.2 mM

Compared with “AAGCAUUCUUCGGAAUGCAGACCCGCUGAGGAGGAUAUGACGAAAGUCAGAAGGUUUCAGUGAUGUUGAGGCCUCCUCAAUGGUC [whbob_Ex_FMNA__2th182]”, “CCAAUCUGUUACGAUACCAGUCAAAGAUAUUUUAUCAAUGCCCUCACCGAGUGAUGUUCGGACCCUUGGCAGCGUCUGGGAUAGG [ddfcmullin]” is 1.8-fold lower in “apparent KD of K4 kissing-loop reporter” value: 256 nM for the first, 142 nM for the second.

“CCUUCUCUUGAUAGUGAUGUUAUCGAGGACAAGGAUAUCAUCUCAAUGAGAAGGUGUCCUUGAUAACAUGGAGGUCUGAAACAGA [Omei KL FMN A Exc C v9]” and “UAUUAAUUGUCAGGAUAUCGUAAACGAGUGAUGUUCGUAUAUCGACGAUAGUCGAUUCUAUCUAAACGAGAAGGGACAUUAUUUA [JR_SSFMNB_Sub008]” are within 1.5-fold of each other in “apparent KD of K4 kissing-loop reporter” value: 355 nM for the first, 454 nM for the second.

“AUUUUUUACAGAAGGAGCGUGUUUUAAUAAUCAUGGUGCUUAGCGAGUGAUGUUCGCUUUACACAGGUAGGUCGCUGUUUAUUUA [JR_Nu_ExcArginiB_Sub030]” and “GAUUUAGAGGCGGCCGCCACUAGUGAUGUUAGUGAUGUUUGAUACUGAAUAUAUCUGCGUUUAGAUAGGACCGGGCCAGAUGGUG [ddcmullin]” are within 1.5-fold of each other in “apparent KD of K4 kissing-loop reporter” value: 113 nM for the first, 159 nM for the second.

Going from “GAUCUGAACGAAAGUUCGGAUCAGUCCGAUACCAGUAUGGAUUCAUACCCUUGGCAGCGGUUAUCUGCUAUGGAGUGAUGUUCCA [Theophylline A K4 11]” to “UUGAGACGUCAAGGAUAUUCCGCGGAAGGGCGAGCGACCCAAGUGUGAGUGAUGUUCAGCAAGCCGGAAGAAGGUGAAUUUCACC [theeternabot_sameState_KL_FMN_B_26]”, the “apparent KD of K4 kissing-loop reporter” value rises from 344 nM to 628 nM (1.8-fold).
